The results in this text go back to EP4703380A1, “INTEGRIN-TARGETING ANTIBODIES AND USE THEREOF” (NIO BIOPHARMACEUTICALS. INC., priority 2023, dated 2024).

For experiment [1], the target named is recombinant human VLA-3 protein (ITGA3/ITGB1 heterodimer) (human, UniProt P05556 21-728). In words: ELISA, coated VLA-3 (0.125-1.5 nM), antibody 1 µg/mL. (ELISA stands for enzyme-linked immunosorbent assay.)
The target in experiment [2] is VLA-3 (ITGA3/ITGB1) on the cell membrane. In words: cell-based or functional assay.
The target of experiment [3] is recombinant human VLA-3 protein (ITGA3/ITGB1 heterodimer) (human) (UniProt P05556). As to the kind of experiment: ELISA, coated VLA-3 (0.125-1.5 nM), antibody 1 µg/mL.
Experiment [4] shares this target. In words: BLI (Octet Red), antibody on AHC sensor, 50 nM VLA-3 with 2 mM Ca2+.
Experiment [5] has the same target. In words: BLI (Octet Red), antibody on AHC sensor, 50 nM VLA-3 with 2 mM EDTA.
Experiment [6] shares this target. As to the kind of experiment: BLI (Octet Red), antibody on AHC sensor, 50 nM VLA-3 with 2 mM Mg2+. (In BLI a coated tip is dipped into the sample, and binding shifts an interference pattern.)
Experiment [7] has the same target. In words: BLI (Octet Red), antibody on AHC sensor, 50 nM VLA-3 with 2 mM Mn2+.
The target is the same in experiment [8]. In words: SPR (Biacore T200), PS4-002 immobilised on CM5, VLA-3 as analyte, HBS-EP running buffer with 3 mM EDTA. For orientation: In SPR one partner is held on a chip, and binding of the other changes the refractive index at the surface.
The target is the same in experiment [9]. As to the kind of experiment: BLI (Octet Red), antibody on AHC sensor, VLA-3 as analyte, no additive, 0 mM EDTA in the running buffer.

Sequence of recombinant human VLA-3 protein (ITGA3/ITGB1 heterodimer) (human) (P05556 21-728, one chain of several): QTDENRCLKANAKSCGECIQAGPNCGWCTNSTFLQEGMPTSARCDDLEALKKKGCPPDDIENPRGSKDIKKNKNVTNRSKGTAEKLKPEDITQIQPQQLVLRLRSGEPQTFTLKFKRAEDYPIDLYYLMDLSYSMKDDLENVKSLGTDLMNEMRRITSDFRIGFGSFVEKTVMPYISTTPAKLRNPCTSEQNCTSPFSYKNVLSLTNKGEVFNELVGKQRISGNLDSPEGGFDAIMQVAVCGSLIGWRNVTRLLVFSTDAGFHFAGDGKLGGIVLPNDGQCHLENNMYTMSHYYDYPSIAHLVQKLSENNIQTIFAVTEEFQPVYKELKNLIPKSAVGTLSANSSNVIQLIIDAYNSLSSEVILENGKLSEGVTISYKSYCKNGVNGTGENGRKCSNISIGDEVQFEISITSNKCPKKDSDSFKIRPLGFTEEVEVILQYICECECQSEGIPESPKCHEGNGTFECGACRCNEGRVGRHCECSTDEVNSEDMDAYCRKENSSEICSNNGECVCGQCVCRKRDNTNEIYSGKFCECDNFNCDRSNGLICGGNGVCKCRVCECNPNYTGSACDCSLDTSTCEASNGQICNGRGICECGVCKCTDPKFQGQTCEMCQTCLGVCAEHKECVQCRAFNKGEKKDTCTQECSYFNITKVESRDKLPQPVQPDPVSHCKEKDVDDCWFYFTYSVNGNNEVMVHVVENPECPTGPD
Sequence of recombinant human VLA-3 protein (ITGA3/ITGB1 heterodimer) (P05556 21-728, one chain of several): as above

B1: PS4 maxibody variant 2 (Linker-C variant) (Fc fusion)
scFv: QVQLVQSGGGLVNPGGSLRLSCAASGFPFSDHYMSWIRQAPGKGLEWVSYISNRGYTIHYADFVKGRFTISRDNAENTLYLQMNSLRAEDTAVYYCARDRGTIDAFDLWGQGTMVTVSSGGGGGSGGGSCGGGGSQSALTQPASVSGSPGQSITIPCSGTSDDIGRYNYVSWYQQHPGKAPKLLIYDVTRRSSGVSSHFSGSKSGSTASLIISGLQADDEADYFCSSFTNNRTVVFGGGTKLTVLG
notes: also called Mutant 2; L-C; not shown: Fc domain of human IgG1
For B1, in experiment [1], the concentration for a half-maximal effect (EC50) is roughly 1 nM.

B2: PS4-002-vcMMAE (PS4 maxibody-vcMMAE conjugate, WT) (Fc fusion, part only; not given: scFv linker, hinge-Fc and drug, not shown: another chain or arm of the molecule; a dimerising Fc or GST; small tags and cut ends)
VH: QVQLVQSGGGLVNPGGSLRLSCAASGFPFSDHYMSWIRQAPGKGLEWVSYISNRGYTIHYADFVKGRFTISRDNAENTLYLQMNSLRAEDTAVYYCARDRGTIDAFDLWGQGTMVTVSS
VL: QSALTQPASVSGSPGQSITIPCSGTSDDIGRYNYVSWYQQHPGKAPKLLIYDVTRRSSGVSSHFSGSKSGSTASLIISGLQADDEADYFCSSFTNNRTVVFGGGTKLTVL
modifications: vcMMAE conjugated to cysteines after partial reduction with TCEP; average DAR 4.09; sites not stated, presumabl [CUT]
With B2, in [2], the IC50 (nM), cell growth inhibition (AlamarBlue), A549 cells turned out to be 5.22 nM; the IC50 (nM), cell growth inhibition (AlamarBlue), BT20 cells came out at 134 nM; the IC50 (nM), cell growth inhibition (AlamarBlue), CoCaB1 cells amounted to 2.21 nM; the IC50 (nM), cell growth inhibition (AlamarBlue), MDA-MB-231 cells was found to be 0.77 nM. In experiment [2], this molecule displayed an IC50 (nM), cell growth inhibition (AlamarBlue), MDA-MB-453 cells (first row) of 9.79 nM; an IC50 (nM), cell growth inhibition (AlamarBlue), MDA-MB-453 cells (second row) of 18.8 nM; an IC50 (nM), cell growth inhibition (AlamarBlue), MKN45 cells of 14.1 nM; an IC50 (nM), cell growth inhibition (AlamarBlue), Panc-1 cells of 2.7 nM. In experiment [2], this molecule returned an IC50 (nM), cell growth inhibition (AlamarBlue), SCaBER cells of 1.88 nM; an IC50 (nM), cell growth inhibition (AlamarBlue), SW780 cells of 1.78 nM; an IC50 (nM), cell growth inhibition (AlamarBlue), UMUC-3 cells of 2.1 nM; a Maximum (% inhibition), cell growth inhibition (AlamarBlue), A549 cells of 77.3%. Moreover, in experiment [2], the Maximum (% inhibition), cell growth inhibition (AlamarBlue), Aspc-1 cells is 51.8%; the Maximum (% inhibition), cell growth inhibition (AlamarBlue), BT20 cells stood at 79.6%; the Maximum (% inhibition), cell growth inhibition (AlamarBlue), CoCaB1 cells was 95.5%; the Maximum (% inhibition), cell growth inhibition (AlamarBlue), MDA-MB-231 cells is 78%. Besides, in experiment [2], the Maximum (% inhibition), cell growth inhibition (AlamarBlue), MDA-MB-453 cells (first row) came to 96.2%; the Maximum (% inhibition), cell growth inhibition (AlamarBlue), MDA-MB-453 cells (second row) amounted to 87.9%; the Maximum (% inhibition), cell growth inhibition (AlamarBlue), MDA-MB-468 cells was 89.9%; the Maximum (% inhibition), cell growth inhibition (AlamarBlue), MKN45 cells is 55.6%. In [2], this molecule registered a Maximum (% inhibition), cell growth inhibition (AlamarBlue), Panc-1 cells of 73.8%; a Maximum (% inhibition), cell growth inhibition (AlamarBlue), SCaBER cells of 89.7%; a Maximum (% inhibition), cell growth inhibition (AlamarBlue), SW780 cells of 90.4%; a Maximum (% inhibition), cell growth inhibition (AlamarBlue), UMUC-3 cells of 90.8%.

B3: PS4-002 maxibody (scFv-human IgG1 Fc), wild type (Fc fusion, part only; not given: scFv linker and IgG1 hinge-Fc, not shown: another chain or arm of the molecule; a dimerising Fc or GST; small tags and cut ends)
VH: QVQLVQSGGGLVNPGGSLRLSCAASGFPFSDHYMSWIRQAPGKGLEWVSYISNRGYTIHYADFVKGRFTISRDNAENTLYLQMNSLRAEDTAVYYCARDRGTIDAFDLWGQGTMVTVSS
VL: QSALTQPASVSGSPGQSITIPCSGTSDDIGRYNYVSWYQQHPGKAPKLLIYDVTRRSSGVSSHFSGSKSGSTASLIISGLQADDEADYFCSSFTNNRTVVFGGGTKLTVL
B3: in experiment [3], the EC50 was found to be 1 nM. In addition, the Kd worked out at 6.46 nM in experiment [4]; 2170 nM in [5]; 0.85 nM in [6]; 0.23 nM in [7]; 216 nM in [8]; 2.15 nM in experiment [9]. The koff in [4] was 0.000209 s⁻¹; in [5], 0.00397 s⁻¹; in experiment [6], 3.78e-05 s⁻¹; in [7] it was 8.46e-06 s⁻¹; in [8], 0.0045 s⁻¹; in [9] it was 5.9e-05 s⁻¹. Further, the association rate constant (kon) in experiment [4] worked out at 32400 M⁻¹ s⁻¹; in experiment [5], 1830 M⁻¹ s⁻¹; in experiment [6] it was 44600 M⁻¹ s⁻¹; in [7], 36500 M⁻¹ s⁻¹; in experiment [8], 20900 M⁻¹ s⁻¹; in experiment [9], 32500 M⁻¹ s⁻¹.

The EC50 is the midpoint of the concentration-response curve. Broadly, the Kd is the free concentration of one partner at which half of the binding sites on the other are occupied at equilibrium, for simple one-to-one binding. Broadly, the koff is the rate constant with which the complex falls apart. For orientation: kon means the second-order rate constant of association.
